Assay results published in publication PMC11301080.

Molecular target: recombinant HIV-1 gp120 ZM109 (HIV-1)
Experiment: BLI

Substance | Kd
recombinant FimH protein, lectin domain only (from UniProt P08191 22-179) (domain or fragment) | 360 nM
Streptococcal Siglec-like lectin SLBR-N, GST-tagged (domain or fragment) | 40.3 nM
